Where a chain is given by its changes, count along the chain named.
How the values were obtained:
[1] = biological target: T1, human HER2 expressed on tumor cells (human, UniProt P04626 23-1255); assay: flow cytometry, BT474 cells
T1 construct: whole, on cells; Cell line is named in each row's assay

[2] = biological target: T2, recombinant human HER2 extracellular domain protein (human, UniProt P04626 23-652); assay: BLI (ForteBio)
T2 construct: range 23-652; Range is printed for the immunogen/panning protein; also called ErbB2; recombinant HER2 protein

[3] = biological target: T1, human HER2 expressed on tumor cells; assay: flow cytometry, RT-112 cells
[4] = biological target: T2, recombinant human HER2 extracellular …; assay: BLI, Protein A capture
[5] = biological target: T1, human HER2 expressed on tumor cells; assay: flow cytometry, BT474 cells, 10 µg/mL
[6] = biological target: T3, recombinant human HER4 extracellular domain (human, UniProt Q15303 26-651); assay: ELISA, coated HER4 ECD
T3 construct: extracellular domain
T3 sequence (looked up): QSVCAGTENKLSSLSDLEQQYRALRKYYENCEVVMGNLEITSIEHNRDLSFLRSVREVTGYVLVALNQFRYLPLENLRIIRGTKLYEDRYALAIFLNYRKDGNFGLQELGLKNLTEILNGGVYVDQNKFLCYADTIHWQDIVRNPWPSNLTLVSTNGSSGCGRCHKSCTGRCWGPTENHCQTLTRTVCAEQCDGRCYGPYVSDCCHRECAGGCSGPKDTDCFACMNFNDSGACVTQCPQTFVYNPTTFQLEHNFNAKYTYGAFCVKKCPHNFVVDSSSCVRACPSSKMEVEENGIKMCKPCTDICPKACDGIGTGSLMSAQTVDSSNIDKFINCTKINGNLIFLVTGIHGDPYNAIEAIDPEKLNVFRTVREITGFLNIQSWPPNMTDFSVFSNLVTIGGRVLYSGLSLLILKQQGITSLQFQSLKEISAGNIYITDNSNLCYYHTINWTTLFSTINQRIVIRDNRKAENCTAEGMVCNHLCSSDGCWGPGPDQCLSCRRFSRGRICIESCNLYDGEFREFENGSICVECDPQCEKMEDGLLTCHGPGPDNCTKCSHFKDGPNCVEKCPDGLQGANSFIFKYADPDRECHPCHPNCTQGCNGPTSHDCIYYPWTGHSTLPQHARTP

[7] = biological target: T4, recombinant human EGFR extracellular domain (human, UniProt P00533 25-645); assay: ELISA, coated EGFR ECD
T4 construct: extracellular domain

[8] = biological target: T2, recombinant human HER2 extracellular …; assay: BLI, Protein A capture; remark: listed apart in the source
[9] = biological target: T5, recombinant human HER3 extracellular domain (human, UniProt P21860 20-643); assay: ELISA, coated HER3 ECD
T5 construct: extracellular domain

[10] = biological target: T2, recombinant human HER2 extracellular …; assay: BLI, Protein A capture; remark: listed apart in the source
[11] = biological target: T6, FcγRI (UniProt P12314 16-288, limits assumed); assay: BLI (ForteBio)
T6 construct: also called CD64
T6 sequence (P12314 16-288 limits assumed): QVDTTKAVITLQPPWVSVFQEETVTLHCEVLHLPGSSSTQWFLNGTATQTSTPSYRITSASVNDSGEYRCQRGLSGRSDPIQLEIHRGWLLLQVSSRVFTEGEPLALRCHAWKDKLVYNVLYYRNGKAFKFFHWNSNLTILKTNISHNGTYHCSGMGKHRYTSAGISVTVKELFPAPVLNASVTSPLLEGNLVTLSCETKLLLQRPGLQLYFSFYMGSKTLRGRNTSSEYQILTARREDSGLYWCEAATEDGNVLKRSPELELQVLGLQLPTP

[12] = biological target: FcγRIIIa (176V) (UniProt P08637 17-208, limits assumed); assay: BLI (ForteBio)
Sequence of FcγRIIIa (176V) (P08637 17-208 F176V limits assumed): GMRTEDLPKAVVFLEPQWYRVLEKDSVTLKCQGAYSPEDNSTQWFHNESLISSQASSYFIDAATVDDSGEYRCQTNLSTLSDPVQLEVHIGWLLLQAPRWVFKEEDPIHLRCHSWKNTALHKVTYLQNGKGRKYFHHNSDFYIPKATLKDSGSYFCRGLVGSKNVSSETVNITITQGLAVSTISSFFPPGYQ

[13] = biological target: FcγRIIIa (176F) (UniProt P08637 17-208); assay: BLI (ForteBio)
Sequence of FcγRIIIa (176F) (P08637 17-208 limits assumed): as the sequence (P08637 17-208 F176V limits assumed) above, with V160F counted along it

[14] = biological target: T7, FcγRIIa (167H) (UniProt P12318 36-218, limits assumed); assay: BLI (ForteBio)
T7 sequence (looked up): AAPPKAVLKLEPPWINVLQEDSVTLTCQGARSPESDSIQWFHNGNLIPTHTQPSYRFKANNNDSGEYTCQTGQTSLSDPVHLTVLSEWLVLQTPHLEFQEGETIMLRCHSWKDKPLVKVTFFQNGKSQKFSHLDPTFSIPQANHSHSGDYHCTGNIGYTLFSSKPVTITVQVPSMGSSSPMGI

B1: Hu2117HK (Fc fusion)
scFv: EVQLVESGGGLVQPGGSLRLSCAASGFTYSSYGMSWVRQAPGKGLEWVASISGGGSYTKYPDSVKGRFTISRDNSKNTLYLQMNSLRAEDTAVYYCARDYAGFFDVWGQGTLVTVSSGGGGSGGGGSGGGGSDIQMTQSPSSLSASVGDRVTITCRSSQSLVHSNGNTYLHWYQQKPGKAPKLLIYKVSNRFSGVPSRFSGSGSGTDFTLTISSLQPEDFATYFCSQSTHVPYTFGQGTKVEIK
notes: Hu2117-H1 + Hu2117-K1; also called hu2117-H1K1; humanized single-chain antibody Hu2117HK; not shown: human IgG1 Fc
EC50 [1]: 0.107 µg/mL | Kd [2]: 178 nM | koff [2]: 0.00296 s⁻¹ | kon [2]: 16600 M⁻¹ s⁻¹ | EC50 [3]: 0.0593 µg/mL | Kd [4]: 11.4 nM | koff [4]: 0.00105 s⁻¹ | kon [4]: 91700 M⁻¹ s⁻¹

B2: Hu2117-HK201 (Fc fusion)
scFv: B1 scFv with S56N, T58A, P61V, G166R
notes: scFv-hIgG1 Fc; not shown: human IgG1 Fc
binding result [5]: binds

B3: Hu2117-HK203 (Fc fusion)
scFv: B1 scFv with S56N, T58A, P61V, A101V, G166R
notes: as for B2
EC50 [1]: 0.102 µg/mL | EC50 [3]: 0.144 µg/mL

B4: Hu2117-HK303 (Fc fusion)
scFv: B1 scFv with S56N, T58A, P61V, D62E, A101V, G166R
notes: as for B2
EC50 [1]: 0.101 µg/mL | EC50 [3]: 0.129 µg/mL

B5: Hu2117-HK304 (Fc fusion)
scFv: B1 scFv with S56N, T58A, P61V, D62P, A101V, G166R
notes: as for B2
EC50 [1]: 0.0922 µg/mL | EC50 [3]: 0.0622 µg/mL

B6: Hu2117-HK309 (Fc fusion)
scFv: B1 scFv with S56N, T58A, P61V, S63K, A101V, G166R
notes: as for B2
EC50 [1]: 0.103 µg/mL | EC50 [3]: 0.0956 µg/mL

B7: Hu2117-HK310 (Fc fusion)
scFv: B1 scFv with S56N, T58A, P61V, S63N, A101V, G166R
notes: as for B2
EC50 [1]: 0.103 µg/mL | EC50 [3]: 0.157 µg/mL

B8: mAb2117 (antibody, V domains shown)
VH: EVKIEESGGGLVKPGGSLKLSCAASGFTYSSYGMSWVRQTPEKRLEWVASISGGGSYTKYPDSVKGRFTISRDNAKNHLYLQMSSLRSEDTALYYCARDYAGFFDVWGAGTTVTVSS
VL: DVVLTQTPLSLPVSLGDQASISCRSSQSLVHSNGNTYLHWYLQKPGQSPKLLIYKVSNRFSGVPDRFSGSGSGTDFTLKISRVEAEDLGVYFCSQSTHVPYTFGGGTKLEIK
notes: also called anti-HER2 chimeric antibody mAb2117
binding result [6]: no binding | binding result [7]: no binding | Kd [8]: 4.28 nM | koff [8]: 0.00166 s⁻¹ | kon [8]: 388000 M⁻¹ s⁻¹ | binding result [9]: no binding

B9: mAb2126 (antibody, human IgG1, V domains shown)
VH: QIQLAQSGPELKKPGETVKISCKASGYTFTDYSMHWVKQAPGKYLKWMGWINTETGEPTYADDFKGRFAFSLETSANTAYLQINNLKNEDTATYFCVRVGRYDYAMDYWGQGTSVTVSS
VL: DIVMTQSHKFMSTSVGDRVSITCKASQDVYTAVAWYQQKPGQSPKLLINSASYRYTGVPDRFTGSGSGTDFTFTISSVQAEDLAVYYCQQHYSTPPTFGGGTKLEIK
notes: also called anti-HER2 chimeric antibody mAb2126
binding result [6]: no binding | Kd [10]: 5.2 nM | koff [10]: 0.000502 s⁻¹ | kon [10]: 96600 M⁻¹ s⁻¹ | binding result [7]: no binding | Kd [8]: 1.44 nM | koff [8]: 9.67e-05 s⁻¹ | kon [8]: 67300 M⁻¹ s⁻¹ | binding result [9]: no binding

B10: mAb2128 (antibody, V domains shown)
VH: EVQLQQSGPELVKPGASVKIPCKASGYTFTDYNMDWVKQSHGKSLEWIGDINPNNGGTIYNQKFKGKATLTVDKSSSTAYMELRSLTSEDTAVYYCARYGSGYGGFAYWGQGTLVTVSS
VL: DIVLTQSPTTMAASPGEKITITCSASSSISSNYLHWYQQKPGFSPKLLIYRTSNLASGVPARFSGSGSGTSYSLTIGTMEAEDVATYYCQQGSSIPRTFGGGTKLEIK
notes: Chimeric human IgG1/Cκ
binding result [6]: no binding | binding result [7]: no binding | Kd [8]: 3.44 nM | koff [8]: 0.000949 s⁻¹ | kon [8]: 276000 M⁻¹ s⁻¹ | binding result [9]: no binding

B11: 04BS-1123-ST06 (bispecific antibody)
heavy: QVQLVESGGGLVQPGGSLRLSCAASGFTYSSYGMSWVRQAPGKGLEWVASISGGGSYTKYVDKVKGRFTISRDNSKNTLYLQMNSLRAEDTAVYYCARDYVGFFDVWGQGTLVTVSSGGGGSQVQLVQSGSELKKPGASVKVSCKASGYTFTDYSMHWVRQAPGQGLEWMGWINTGTGEPTYADDFKGRFTISRDTSKSTAYLQISSLKAEDTAVYYCVRVGRYDYAMDYWGQGTTVTVSSASTKGPSVFPLAPSSKSTSGGTAALGCLVKDYFPEPVTVSWNSGALTSGVHTFPAVLQSSGLYSLSSVVTVPSSSLGTQTYICNVNHKPSNTKVDKRVEPKSCDKTHTCPPCPAPEFEGGPSVFLFPPKPKDTLMISRTPEVTCVVVDVSHEDPEVKFNWYVDGVEVHNAKTKPREEQYNSTYRVVSVLTVLHQDWLNGKEYKCKVSNKALPASIEKTISKAKGQPREPQVYTLPPSRDELTKNQVSLTCLVKGFYPSDIAVEWESNGQPENNYKTTPPVLDSDGSFFLYSKLTVDKSRWQQGNVFSCSVMHEALHNHYTQKSLSLSPGK
light: DIQMTQSPSSLSASVGDRVTITCRSSQSLVHSNRNTYLHWYQQKPGKAPKLLIYKVSNRFSGVPSRFSGSGSGTDFTLTISSLQPEDFATYFCSQSTHVPYTFGQGTKVEIKGGGGSGGGGSGGGGSDIQMTQSPSSLSASVGDRVTITCRASQDVYTAVAWYQQKPGKAPKLLINLASSRPTGVPSRFSGSGSGTDFTLTISSLQPEDFATYYCQQYYSTPPTFGGGTKVEIKRTVAAPSVFIFPPSDEQLKSGTASVVCLLNNFYPREAKVQWKVDNALQSGNSQESVTEQDSKDSTYSLSSTLTLSKADYEKHKVYACEVTHQGLSSPVTKSFNRGEC
notes: also called anti-HER2 biparatopic antibody 04BS-1123-ST06
binding result [11]: no binding | binding result [12]: no binding | binding result [13]: no binding | binding result [14]: no binding | binding result [6]: no binding | binding result [7]: no binding | binding result [9]: no binding

Reference: patent EP4725969A1 (Latticon (Suzhou) Biopharmaceuticals Co., Ltd., dated 2024)
